Target: T1, GFP with a C-terminal BC2 tag (BC2 tag (beta-catenin 16-27) on GFP, chimera)
T1 construct: GFP ('modified GFP that contains BC2T as a C-terminal peptide tag'; its control is called wtGFP); variant and limits are in the Supplementary methods; BC2 tag (BC2T), residues 16-27 of beta-catenin, at the C-terminus; also called GFP_(BC2T); source: E. coli, soluble protein fraction of the lysate (pull-downs); protein expression and purification are told in the Supplementary methods
T1 chain: PDRKAAVSHWQQ
Experiment: SPR; measurements 'using the GFP_(BC2T) construct'; who was immobilised and the conditions are not told in the text shown (Supplementary methods, Supplementary Fig. 3)
Conditions: both partners purified

Kd: 1.4 ± 0.06 nM
koff: 0.00064 s⁻¹
kon: 460000 M⁻¹ s⁻¹
B1: BC2 nanobody (VHH)
VHH: QVQLVESGGGLVQPGGSLTLSCTASGFTLDHYDIGWFRQAPGKEREGVSCINNSDDDTYYADSVKGRFTIFMNNAKDTVYLQMNSLKPEDTAIYYCAEARGCKRGRYEYDFWGQGTQVTVSS
notes: In the pull-downs it is covalently coupled to Sepharose beads (BC2 nanotrap); also called BC2-Nb; wt; source: purified; expression and purification are told in the Supplementary methods

Source: publication PMC4726124, “Peptides in headlock – a novel high-affinity and versatile peptide-binding nanobody for proteomics and microscopy” (Scientific Reports, 2016)
